B1: Azoarcus group I ribozyme (parent)
chain: GUGCCUUGCGCCGGGAAACCACGCAAGGGAUGGUGUCAAAUUCGGCGAAACCUAAGCGCCCGCCCGGGCGUAUGGCAACGCCGAGCCAAGCUUCGGCGCCUGCGCCGAUGAAGGUGUAGAGACUAGACGGCACCCACCUAAGGCAAACGCUAUGGUGAAGGCAUAGUCCAGGGAGUGGCGAAAGUCACACAAACCGG

The variants in the series derive from B1. As to the kind of experiment: reverse-splicing fitness (ratio to wild type); higher = more active; in vitro selection; Mg2+ level not given. Summed up: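 An in vitro group I ribozyme library with randomized positions was T7-transcribed and gel-purified. In triplicate, 10 pmol RNA in EPPS pH 7.5 was reacted with 50 pmoles of a 30-nt RNA substrate for 1 h at 37 °C across several added MgCl2 levels (1–48 mM), then stopped with EDTA. Products were reverse transcribed from a substrate-complementary primer, PCR-amplified and sequenced (HiSeq 4000). Fitness is a variant's read proportion after selection over that before, normalised to wild type.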
With C82G A145G C150U C169A U176G, the reverse-splicing fitness worked out at 0.00619.
Regarding A111C A120C C169G U176A, the reverse-splicing fitness was 0.0157.
As for C82U A111C A145G C169U, the figure is 0.012.
For C82A A111C C150A U176C the value was 0.0285; for C82G A111C A120C C150G C169G, 0.00702.
As for C82U A111G A120C A145U C169A U176A, the figure is 0.00844.
For C82U A111U A145C C150G C169U U176G, the reverse-splicing fitness was 0.00515.
With C82A A111C A120U A145G C150U U176G, the reverse-splicing fitness worked out at 0.00369.
As for C82G A120U C150U, the figure is 0.1; as for A111C C150A U176C, 0.147; as for A120C C150G C169A, 0.0115.
As for C82G C150G U176G, the figure is 0.00797; as for A111G A120C A145U C150A U176G, 0.024.
As for C82A A111G A145G C150U C169U U176C, the figure is 0.0135; as for A111C A145U C169G, 0.071; as for C82U A111G A145U C150U C169A U176A, 0.0115.
On to C82A A111C A120C C150U C169G U176A, for which the reverse-splicing fitness turned out to be 0.0139.
As for A111C A120C C150G C169U U176A, the figure is 0.00759; as for C82G A111U A120G C150U C169G U176G, 0.0053; as for C82U A111G A145U C150G C169A, 0.00869.
For the variant C82G A111U A120C A145G C150A C169A U176C, the reverse-splicing fitness is 0.026.
Take C82A A111G A145U C150A U176C: the reverse-splicing fitness was 0.03.
In the case of A111G A120U A145U C169U U176G, the reverse-splicing fitness turned out to be 0.00399.
Turning to A120C A145C C150U C169G U176A, the reverse-splicing fitness amounted to 0.0156.
Regarding C82G A111C A145G C150U C169A U176G, the reverse-splicing fitness stood at 0.00789.
Turning to C82G A111C A120C A145C C150G U176C, the reverse-splicing fitness is 0.00825.
For C82A A120C C150G C169G the value was 0.00866; for A111C A120C C150G C169G U176C, 0.00683.
As for C82A A111C A145C C150G C169A, the figure is 0.00764; as for C82A A120C A145G C150A C169A U176C, 0.0248.
For A120U A145G C150U C169A U176G the value was 0.00258; for C82A A145G C150U C169U U176A, 0.0129.
Regarding C82U A111U A120U A145C C150A C169U U176A, the reverse-splicing fitness turned out to be 0.0025.
For C82A A111C A145U C169A the value was 0.0078; for C82A A120U A145U C150U C169A, 0.00226; for C82A A120C A145C C150G C169A U176C, 0.00816.
A111G A145C C150U C169U U176A: the reverse-splicing fitness worked out at 0.0217.
In the case of C82A A145G C150G C169U U176A, the reverse-splicing fitness was found to be 0.0117.
Regarding A111U A145C C150A C169U U176C, the reverse-splicing fitness was found to be 0.0105.
For A120G C150G C169U U176A the value was 0.0245.
For C82U A120C A145G C150G C169A U176C the value was 0.0131; for C82U A111C A120G A145G C169A U176A, 0.0193; for A111C A120C A145G C169U U176G, 0.00591.
As for C82G A111U A120U C150U C169A U176A, the figure is 0.00512; as for A111U A120G A145G C150A C169A U176G, 0.00599.
As for C82A A111C A120C C150G C169U U176G, the reverse-splicing fitness came out at 0.00771.
As for C82G A145C C169U, the reverse-splicing fitness worked out at 0.016.
For C82G A145C C169A the value was 0.00859; for C82A A111G A120C A145U C150A C169G U176A, 0.0188; for A120U C169G, 0.262.
For C82A A111C A120U A145U C169G the value was 0.00439; for A120C A145U C150U C169G U176G, 0.00463; for C82A A120C A145U C150A U176A, 0.0143.
As for A111G C150U C169G U176C, the figure is 0.0386; as for C82U A111G A120U A145C C169G, 0.00247; as for C82G A111G A145U C150U C169G U176A, 0.0142.
Turning to C82G A145C C150G U176A, the reverse-splicing fitness turned out to be 0.0337.
For C82U A120C A145C C150G C169G U176G the value was 0.00305; for A111C A145U C169A U176G, 0.00736.
As to C82U A111U A120G A145U C150U U176C, the reverse-splicing fitness worked out at 0.013.
Consider A111C A120U C150U U176C, for which the reverse-splicing fitness was found to be 0.194.
C82A A111U A120U C150G C169U U176A: the reverse-splicing fitness turned out to be 0.00341.
For C82A A111C A120C A145G C169G U176A the value was 0.0212.
C82G A120G A145C C169U: the reverse-splicing fitness came to 0.0209.
For C82U A111G A120G A145U C150A, the reverse-splicing fitness was determined as 0.00726.
For C82G A111G A120C A145U C169G the value was 0.00799; for C82G A111G A120C A145U C169U, 0.0157.
As for A111U A145G C150A C169U U176A, the reverse-splicing fitness came to 0.0173.
As for C82A A111U A145U C150A C169G U176G, the reverse-splicing fitness was found to be 0.00712.
On to C82U A111U A120U C150G C169U U176C, for which the reverse-splicing fitness stood at 0.00377.
Consider C82U A111G A120G A145U C150A C169G U176G, for which the reverse-splicing fitness was 0.00398.
C82A A111U A145C C150G C169U: the reverse-splicing fitness turned out to be 0.00999.
As for A111C A120U A145G C150A C169G U176A, the figure is 0.00653; as for C82G A145C C150U C169G U176C, 0.00942.
Turning to C82A A111G A120U A145C C150A, the reverse-splicing fitness is 0.00468.
Regarding C82U A120U C150A C169G, the reverse-splicing fitness amounted to 0.00313.
With C82U A120U A145G C150A U176A, the reverse-splicing fitness came out at 0.0113.
For C82G A120U A145U C150G U176G the value was 0.00267.
As for C82U A111U A120U A145U U176A, the figure is 0.00758; as for A111U A120G C150U C169U U176A, 0.0401; as for C82A A111U A145G C150A C169U U176G, 0.00831.
As to C82U A111U A120U A145C C169A U176A, the reverse-splicing fitness was determined as 0.00226.
On to C82U A145G C150U C169U, for which the reverse-splicing fitness is 0.0153.
With C82G A111U A120U A145G C150U C169U, the reverse-splicing fitness amounted to 0.00655.

For the origin of these results see the RNAGym collection of RNA variant scans (doi:10.1093/molbev/msab373).
